Assays:
[1] = biological target: hORC1-5;hCDC6;hCDT1deltaN;hMCM2-7 (human;human;human;human) (UniProt Q13415+Q13416+Q9UBD5+O43929+O43913+Q99741+Q9H211+P49736+P25205+P33991+P33992+Q14566+P33993); assay: bead pull-down (pre-RC assay); conditions: ATP, high-salt wash, no hORC6; CDT1 form inferred; 25 mM HEPES-KOH pH 7.5, 250 mM KGlu, 1 mM DTT, 4 mM MgOAc, 0.1% Triton X-100, 1 mM ATP or ATPgS, 30 C; high-salt wash adds 300 mM NaCl; in-solution: …; scale: fold reduction of hMCM2-7 signal vs with hORC6
[2] = biological target: hORC1-5;hORC6;hCDC6;hCDT1deltaN;hMCM2-7 (human;human;human;human;human) (UniProt Q13415+Q13416+Q9UBD5+O43929+O43913+Q9Y5N6+Q99741+Q9H211+P49736+P25205+P33991+P33992+Q14566+P33993); assay: bead pull-down (pre-RC assay); conditions: ATP, high-salt wash; CDT1 form inferred; 25 mM HEPES-KOH pH 7.5, 250 mM KGlu, 1 mM DTT, 4 mM MgOAc, 0.1% Triton X-100, 1 mM ATP or ATPgS, 30 C; high-salt wash adds 300 mM NaCl; in-solution: …; scale: fold higher hMCM2-7 signal than without hORC6
[3] = biological target: budding yeast MCM2-7 complex (budding yeast) (UniProt P29469); assay: negative-stain EM (2D class averages); eluates of pre-RC reactions with ATP washed with 300 mM NaCl (high salt); complexes on DNA

| percent of particles in double-hexamer class averages [3] [%] | Substance | binding signal [1] | binding signal [2] |
| --- | --- | --- | --- |
|  | lamin B2 origin DNA for pre-RC / hOCCM (2 or 3 kbp) | 1.8 | 1.8 |
| 91 | budding yeast MCM2-7 complex, P29469 1-868; P24279 1-971; P30665 1-933; P29496 1-775; P53091 1-1017; P38132 1-845 |  |  |
